Target: WH01 RBD (residues 333-530) (SARS-CoV-2 Wuhan-Hu-01 (WH01), UniProt P0DTC2)
Test: crystal structure
Settings: both partners purified

B1: Nb22 (VHH)
VHH: QVQLVESGGNLVQPGGSLRLSCAASGGTLASFAVGWFRQAPGKEREGVSCIDVINRANYADSVKGRFTISRDSAKNTVYLQMNSLEPEDTAVYSCAAHFVPPGSRLRGCLVNELYNYWGQGTQVTVSS
- binding result: binds
